Measurements from article PMC10267580, “Structural basis of ELKS/Rab6B interaction and its role in vesicle capturing enhanced by liquid-liquid phase separation” (The Journal of Biological Chemistry, 2023).
Values belong to the binder of their own block, whether it stands above or below them.

What was measured:
[1] = molecular target: T1, Rab6B^Q72L, GTPase domain (residues 8-176), constitutively active mutant (mouse, UniProt P61294 8-176, Q72L); test: ITC; MicroCal PEAQ-ITC, 25 °C, 50 mM Tris pH 7.5, 100 mM NaCl, 2 mM MgCl2; typically one protein (400 μM) in the syringe into its binding protein (40 μM) in the cell; settings: both partners purified
T1 construct: Rab6B, mouse, GenBank NM_173781.4, GTPase domain residues 8-176, with Q72L; Used in analytical gel filtration and ITC; The methods tell of tag cleavage (HRV 3C) only for crystallization, so the Trx-His6 tag was probably still on; also called continuously active mutant Rab6B^Q72L; active form of Rab6B; source: E. coli BL21(DE3), purified (Ni2+-NTA, size-exclusion chromatography)
T1 sequence (P61294 8-176 Q72L): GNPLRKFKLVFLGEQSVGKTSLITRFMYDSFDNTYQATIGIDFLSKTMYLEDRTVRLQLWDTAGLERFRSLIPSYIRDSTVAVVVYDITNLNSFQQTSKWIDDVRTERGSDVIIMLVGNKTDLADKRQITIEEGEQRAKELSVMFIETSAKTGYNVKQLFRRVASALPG

[2] = molecular target: T1, Rab6B^Q72L, GTPase domain (residues …); test: SEC; analytical gel filtration, Superdex 200 Increase 10/300 GL, 50 mM Tris pH 7.5, 100 mM NaCl, 2 mM MgCl2, 1 mM DTT; settings: both partners purified

- Kd [1]: ~8 µM
B1: ELKS1_RBD, Rab-binding domain of ELKS1 (residues 849-922) (domain or fragment, rat, UniProt Q811U3 849-922, looked up)
chain: RKHLEEVLEMKQEALLAAISEKDANIALLELSSSKKKTQEEVAALKREKDRLVQQLKQQTQNRMKLMADNYEDD
notes: As used in analytical gel filtration and ITC; source: E. coli BL21(DE3), purified (Ni2+-NTA, size-exclusion chromatography)

- binding result [2]: binds
B2: ELKS1 C-terminal coiled-coil region (residues 761-927) (domain or fragment, rat, UniProt Q811U3 761-927, looked up)
chain: QVKDQNKKVANLKHKEQVEKKKSAQMLEEARRREDSLSDSSQQLQVEELLMAMEKVKQELESMKAKLSSTQQSLAEKETHLTNLRAERRKHLEEVLEMKQEALLAAISEKDANIALLELSSSKKKTQEEVAALKREKDRLVQQLKQQTQNRMKLMADNYEDDHFRSS
notes: ELKS1 (Rab6IP2, CAST, ERC), rat, GenBank AY174115.1, residues 761-927; also called C-terminal fragment of ELKS1; source: E. coli BL21(DE3), purified (Ni2+-NTA, size-exclusion chromatography)
